Changes are numbered by the printed parent chain. Names and notes keep the numbering of the source.
B1: wild type human NT-3 (r-metHuNT-3) (ligand)
chain: MYAEHKSHRGEYSVCDSESLWVTDKSSAIDIRGHQVTVLGEIKTGNSPVKQYFYETRCKEARPVKNGCRGIDDKHWNSQCKTSQTYVRALTSENNKLVGWRWIRIDTSCVCALSRKIGRT
B2: NT-3(1-117)R61A,K64D (ligand)
chain: MYAEHKSHRGEYSVCDSESLWVTDKSSAIDIRGHQVTVLGEIKTGNSPVKQYFYETRCKEAAPVDNGCRGIDDKHWNSQCKTSQTYVRALTSENNKLVGWRWIRIDTSCVCALSRKIG
B3: NT-3(1-119)R61A,K64D (ligand)
chain: B1 chain with R62A, K65D

Key:
trkB receptor = assay: cell-based or functional assay
[1] = target: human trkC receptor protein (human, UniProt Q16288 32-839); assay: cell-based or functional assay
Chain of human trkC receptor protein (Q16288 32-839): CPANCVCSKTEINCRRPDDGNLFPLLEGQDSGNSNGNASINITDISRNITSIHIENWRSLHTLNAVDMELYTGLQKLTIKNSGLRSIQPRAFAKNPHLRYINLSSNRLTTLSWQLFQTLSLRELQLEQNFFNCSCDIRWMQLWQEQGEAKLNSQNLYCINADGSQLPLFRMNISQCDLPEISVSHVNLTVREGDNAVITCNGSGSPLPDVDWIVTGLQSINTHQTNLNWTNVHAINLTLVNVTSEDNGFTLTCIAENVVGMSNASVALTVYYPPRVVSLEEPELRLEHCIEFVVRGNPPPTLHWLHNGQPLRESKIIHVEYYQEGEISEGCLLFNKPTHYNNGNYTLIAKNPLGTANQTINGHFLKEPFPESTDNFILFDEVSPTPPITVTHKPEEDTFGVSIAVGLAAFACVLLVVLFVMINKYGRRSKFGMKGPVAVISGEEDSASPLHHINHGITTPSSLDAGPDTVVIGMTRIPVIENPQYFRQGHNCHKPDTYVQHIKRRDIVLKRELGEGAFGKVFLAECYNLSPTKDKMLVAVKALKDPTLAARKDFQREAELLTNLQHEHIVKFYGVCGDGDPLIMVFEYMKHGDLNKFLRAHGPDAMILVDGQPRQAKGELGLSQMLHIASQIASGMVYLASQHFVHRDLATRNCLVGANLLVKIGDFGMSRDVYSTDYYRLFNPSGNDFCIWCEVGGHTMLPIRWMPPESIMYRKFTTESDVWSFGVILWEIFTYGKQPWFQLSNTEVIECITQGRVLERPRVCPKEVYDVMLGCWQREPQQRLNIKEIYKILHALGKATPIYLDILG

Row | Molecule | Bioactivity (mg/mg), MTS mitogenic bioassay (trkB receptor) | Percentage of expected activity (%), in vitro mitogenic bioassay [1]
1 | BDNF, P60E, K65D, K73D, K95A (from UniProt P23560 129-247) (ligand) | 0.61 mg/mg | 
2 | Wild type BDNF (from UniProt P23560 129-247) (ligand) | 0.61 mg/mg | 
3 | BDNF, K65D, K73D, K95A, R97A (from UniProt P23560 129-247) (ligand) | 1.24 mg/mg | 
4 | B1 |  | 72%
5 | B2 |  | 328%
6 | B3 |  | 524%
